# Paper PMC12278352, “Characterization of DnaB–DnaG Interaction in M. tuberculosis Using Small‐Angle X‐ray Scattering‐Based Dissociation Assay” (Chembiochem, 2025)
# B1: M. tuberculosis DnaG primase, full-length (enzyme)
# chain: MSGRISDRDIAAIREGARIEDVVGDYVQLRRAGADSLKGLCPFHNEKSPSFHVRPNHGHFHCFGCGEGGDVYAFIQKIEHVSFVEAVELLADRIGHTISYTGAATSVQRDRGSRSRLLAANAAAAAFYAQALQSDEAAPARQYLTERSFDAAAARKFGCGFAPSGWDSLTKHLQRKGFEFEELEAAGLSRQGRHGPMDRFHRRLLWPIRTSAGEVVGFGARRLFDDDAMEAKYVNTPETLLYKKSSVMFGIDLAKRDIAKGHQAVVVEGYTDVMAMHLAGVTTAVASCGTAFGGEHLAMLRRLMMDDSFFRGELIYVFDGDEAGRAAALKAFDGEQKLAGQSFVAVAPDGMDPCDLRLKCGDAALRDLVARRTPLFEFAIRAAIAEMDLDSAEGRVAALRRCVPMVGQIKDPTLRDEYARQLAGWVGWADVAQVIGRVRGEAKRTKHPRLGRLGSTTIARAAQRPTAGPPTELAVRPDPRDPTLWPQREALKSALQYPALAGPVFDALTVEGFTHPEYAAVRAAIDTAGGTSAGLSGAQWLDMVRQQTTSTVTSALISELGVEAIQVDDDKLPRYIAGVLARLQEVWLGRQIAEVKSKLQRMSPIEQGDEYHALFGDLVAMEAYRRSLLEQASGDDLTA
# notes: DnaG primase, Mycobacterium tuberculosis, full length (the truncated form ends at amino acid 639); also called full DnaG; full-length DnaG
# B2: primase domain of gene 4 protein (gp4) from bacteriophage T7 (residues 1–271) (domain or fragment, UniProt P03692 1-271, looked up)
# chain: MDNSHDSDSVFLYHIPCDNCGSSDGNSLFSDGHTFCYVCEKWTAGNEDTKERASKRKPSGGKPMTYNVWNFGESNGRYSALTARGISKETCQKAGYWIAKVDGVMYQVADYRDQNGNIVSQKVRDKDKNFKTTGSHKSDALFGKHLWNGGKKIVVTEGEIDMLTVMELQDCKYPVVSLGHGASAAKKTCAANYEYFDQFEQIILMFDMDEAGRKAVEEAAQVLPAGKVRVAVLPCKDANECHLNGHDREIMEQVWNAGPWIPDGVVSALSL
# notes: primase domain of gene 4 protein (gp4), bacteriophage T7, residues 1-271; For the NMR spectra the protein was 15N-labelled and deuterated; Monomer without cofactors, dimer with ATP/CTP, RNA and Mg2+; also called T7 primase; T7 DNA primase
# How the values were obtained:
# [1] = biological target: the molecule itself; test: SPR; full-length DnaG (7.2 μg) immobilised on a GLC chip by amine coupling; soluble DnaG 0-17 μM, 60 μL/min; signal at equilibrium; profile did not follow a pure 1:1 fit; monomer to dimer
# [2] = biological target: the molecule itself; test: cross-linking; Fe(II)-catalysed cross-linking of T7 primase (15 μM) with 1 mM ATP, ferrous chloride, H2O2, ascorbic acid, room temperature 45 min; products analysed by Superdex 200 SEC, SDS-PAGE and MALDI-TOF
# [3] = biological target: the molecule itself; test: SAXS; T7 primase at constant concentration (1 mg/ml in the methods, 50 μM in the legend) with increasing 4-mer RNA (5'-ACCC-3'), RNA:protein molar ratio 1 to 10, in the presence of ATP/CTP, RNA and Mg2+; 20 mM Tris-HCl pH 7.5, 1 mM DTT; 4 °C; Rg against theoretical monomer (24 Å) and dimer (27 Å)
protein,measurement,setting,value
B1,Kd,[1],2 ± 0.3 µM
B2,stoichiometry N,[2],3
same,stoichiometry N,[3],2
